Values belong to the molecule of their own block, whether it stands above or below them.
Experiments:
[1] = target: T1, BaDH (benzyl alcohol dehydrogenase) (Aromatoleum aromaticum, UniProt Q5P459); experiment: photometric NADH formation, […] nm; Michaelis-Menten with substrate inhibition fit; type: biochemical; settings: substrate inhibition constant; NAD+, pH 8.0, 30 °C
T1 construct: gene adh; full-length, C-terminal Twin-Strep-tag kept, expressed in E. coli BL21(DE3), Strep-tactin purified; Zn (catalytic) and Zn/Fe (structural)
T1 sequence (Q5P459 1-362): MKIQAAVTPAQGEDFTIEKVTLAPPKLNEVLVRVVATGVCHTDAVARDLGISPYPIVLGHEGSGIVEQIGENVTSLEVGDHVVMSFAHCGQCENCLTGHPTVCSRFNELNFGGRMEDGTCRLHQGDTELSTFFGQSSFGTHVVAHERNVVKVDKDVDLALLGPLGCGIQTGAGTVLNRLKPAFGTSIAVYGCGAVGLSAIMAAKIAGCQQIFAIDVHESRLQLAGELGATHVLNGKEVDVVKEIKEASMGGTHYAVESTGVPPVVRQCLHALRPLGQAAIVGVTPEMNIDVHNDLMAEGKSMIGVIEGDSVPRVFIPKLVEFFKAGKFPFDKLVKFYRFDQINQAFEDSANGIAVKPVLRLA

[2] = substrate: NC(=O)C1=CN([C@@H]2O[C@H](COP(=O)(O)OP(=O)(O)OC[C@H]3O[C@@H](n4cnc5c(N)ncnc54)[C@H](OP(=O)(O)O)[C@@H]3O)[C@@H](O)[C@H]2O)C=CC1; experiment: photometric NADPH consumption; Hill fit with substrate inhibition; type: biochemical, Aromatoleum aromaticum; settings: apparent, fixed benzaldehyde, pH 5.5, 30 °C, cooperative, Hill n 1.38, Kis constrained to Km, kcat called overestimated by authors, varied: cofactor
Source text: photometric NADPH consumption; Hill fit with substrate inhibition on BaDH (benzyl alcohol dehydrogenase)

purified protein [3] = substrate: NC(=O)C1=CN([C@@H]2O[C@H](COP(=O)(O)OP(=O)(O)OC[C@H]3O[C@@H](n4cnc5c(N)ncnc54)[C@H](O)[C@@H]3O)[C@@H](O)[C@H]2O)C=CC1; experiment: purified protein; type: biochemical, Aromatoleum aromaticum; settings: apparent, fixed benzaldehyde, pH 7.0, 30 °C, extrapolated, saturation not reached, probably underestimated per authors (text: no reliable constants), varied: cofactor
purified protein [4] = substrate: OCc1ccccc1; experiment: purified protein; type: biochemical, Aromatoleum aromaticum; settings: apparent, oxidation with NAD+, pH 8.0, 30 °C, substrate inhibition, kcat called overestimated by authors
[5] = substrate: O=Cc1ccccc1; experiment: photometric NADH consumption; Michaelis-Menten with substrate inhibition fit; type: biochemical, Aromatoleum aromaticum; settings: apparent, reduction with NADH, pH 7.0, 30 °C, Kis constrained to >= Km, kcat called overestimated by authors
Source text: photometric NADH consumption; Michaelis-Menten with substrate inhibition fit on BaDH (benzyl alcohol dehydrogenase)

[6] = substrate: NC(=O)c1ccc[n+]([C@@H]2O[C@H](COP(=O)(O)OP(=O)(O)OC[C@H]3O[C@@H](n4cnc5c(N)ncnc54)[C@H](OP(=O)(O)O)[C@@H]3O)[C@@H](O)[C@H]2O)c1; experiment: photometric NADPH formation; Hill fit with substrate inhibition; type: biochemical, Aromatoleum aromaticum; settings: apparent, fixed benzyl alcohol, pH 6.5, 30 °C, cooperative, Hill n 2.44, Kis constrained to Km, kcat called overestimated by authors, varied: cofactor
Source text: photometric NADPH formation; Hill fit with substrate inhibition on BaDH (benzyl alcohol dehydrogenase)

[7] = substrate: NC(=O)c1ccc[n+]([C@@H]2O[C@H](COP(=O)(O)OP(=O)(O)OC[C@H]3O[C@@H](n4cnc5c(N)ncnc54)[C@H](O)[C@@H]3O)[C@@H](O)[C@H]2O)c1; experiment: photometric NADH formation; Michaelis-Menten fit; type: biochemical, Aromatoleum aromaticum; settings: apparent, fixed benzyl alcohol, pH 8.0, 30 °C, varied: cofactor
Source text: photometric NADH formation; Michaelis-Menten fit on BaDH (benzyl alcohol dehydrogenase)

- Kis [1]: 4.37 mM
Molecule: OCc1ccccc1 [BAlc, benzyl alcohol]

B1: BaDH (benzyl alcohol dehydrogenase) (Aromatoleum aromaticum EbN1) (protein)
chain: MKIQAAVTPAQGEDFTIEKVTLAPPKLNEVLVRVVATGVCHTDAVARDLGISPYPIVLGHEGSGIVEQIGENVTSLEVGDHVVMSFAHCGQCENCLTGHPTVCSRFNELNFGGRMEDGTCRLHQGDTELSTFFGQSSFGTHVVAHERNVVKVDKDVDLALLGPLGCGIQTGAGTVLNRLKPAFGTSIAVYGCGAVGLSAIMAAKIAGCQQIFAIDVHESRLQLAGELGATHVLNGKEVDVVKEIKEASMGGTHYAVESTGVPPVVRQCLHALRPLGQAAIVGVTPEMNIDVHNDLMAEGKSMIGVIEGDSVPRVFIPKLVEFFKAGKFPFDKLVKFYRFDQINQAFEDSANGIAVKPVLRLA
notes: full-length, C-terminal Twin-Strep-tag kept, expressed in E. coli BL21(DE3), Strep-tactin purified; Zn (catalytic) and Zn/Fe (structural)
- K0.5 [2]: 3.42 mM
- Vmax [2]: 159 µmol/min/mg
- kcat [2]: 110 s⁻¹
- kcat/Km [2]: 32000 M⁻¹ s⁻¹
- Km (purified protein [3]): 3690 µM
- Vmax (purified protein [3]): 320 µmol/min/mg
- kcat (purified protein [3]): 222 s⁻¹
- kcat/Km (purified protein [3]): 60000 M⁻¹ s⁻¹
- Km (purified protein [4]): 3620 µM
- Vmax (purified protein [4]): 410 µmol/min/mg
- kcat (purified protein [4]): 693 s⁻¹
- kcat/Km (purified protein [4]): 191000 M⁻¹ s⁻¹
- Km [5]: 1780 µM
- Vmax [5]: 345 µmol/min/mg
- kcat [5]: 239 s⁻¹
- kcat/Km [5]: 134000 M⁻¹ s⁻¹
- K0.5 [6]: 2.39 mM
- Vmax [6]: 54.1 µmol/min/mg
- kcat [6]: 37.5 s⁻¹
- kcat/Km [6]: 16000 M⁻¹ s⁻¹
- Km [7]: 1670 µM
- Vmax [7]: 84.2 µmol/min/mg
- kcat [7]: 58.4 s⁻¹
- kcat/Km [7]: 35000 M⁻¹ s⁻¹

— PMC11231019, “A pH-dependent shift of redox cofactor specificity in a benzyl alcohol dehydrogenase of aromatoleum aromaticum EbN1” (Applied Microbiology and Biotechnology, 2024)
